Measured values from patent US20160171150A1, “Chemical Modulators of Pro-Apoptotic BAX and BCL-2 Polypeptides” (Dana-Farber Cancer Institute, Inc., priority 2008, published 2016).

Target: T1, BAX (Homo sapiens, UniProt Q07812)
T1 construct: Full-length human BAX-encoding cDNA (aa 1-192) was cloned into pTYB1 plasmid; made in house; host or cells: Escherichia coli BL21(DE3)
Experiment: NMR analysis of BIM SAHB binding to BAX
Conditions: 1H-15N correlation spectrum, BIM SAHB titration
Source text: To investigate the initiating event for BAX activation, the interaction of BAX with the BH3 ligand BIM SAHB was studied. […] BIM SAHB binding to BAX was monitored using Nuclear Magnetic Resonance (NMR) spectroscopy. Compared to the ^1H-^15N correlation spectrum of BAX, the addition of BIM SAHB broadened and shifted select NMR cross-peaks, indicating fast exchange between the bound and unbound conformations of BAX. The overall features of the NMR spectra were quite similar except for significant changes in the loop residues between α1 and α2 upon BIM SAHB binding. […] Significant changes were also observed for the side-chain NH2 of Q28, Q32, and Q52. […]
Screening by NMR is conducted by recording ^1H-^13C filtered-1D experiments of uniformly ^13C-labeled BAX at 25-50 μM concentrations, in the absence and presence of compounds at 50-100 μM concentrations. […] The weighted average chemical shift difference is calculated as √{square root over ({(ΔH)2+(ΔN/5)2}/2)} in p.p.m. and plotted as a function of the residue number of BAX. […] NMR experiments are processed with the NMRPipe spectral analysis package and chemical shifts variations measured with NMRView software. NMR spectra are recorded, for example, at 30° C. on Bruker Avance 600 MHz equipped with a z-shielded gradient, triple resonance cryoprobe.

T1 sequence (Q07812 whole entry, the tested form may be a part): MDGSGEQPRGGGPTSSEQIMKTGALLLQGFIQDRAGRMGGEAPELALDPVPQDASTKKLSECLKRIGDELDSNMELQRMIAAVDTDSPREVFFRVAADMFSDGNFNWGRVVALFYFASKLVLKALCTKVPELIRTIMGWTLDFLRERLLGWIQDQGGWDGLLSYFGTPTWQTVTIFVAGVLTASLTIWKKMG

BIM SAHB: hydrocarbon-stapled BIM BH3 peptide (SEQ ID NO:3), Stabilized Alpha-Helix of BCL-2 domain; direct BAX-activating compound
binding to BAX (chemical shift perturbation mapping): revealed interactions at a discrete subset of BAX residues
